Results published in article PMC3582507, “A Safeguard Mechanism Regulates Rho GTPases to Coordinate Cytokinesis with the Establishment of Cell Polarity” (PLoS Biology, 2013).

T1: 6His-Gps1-1-290 (S. cerevisiae, UniProt Q99299 1-290)
T1 construct: Gps1, budding yeast, ORF YPL158C, amino acids 1-290; also called 6His-GPS1 (amino acids 1-290); source: E. coli BL21 (DE3), purified (Ni-NTA agarose)
T1 sequence (looked up): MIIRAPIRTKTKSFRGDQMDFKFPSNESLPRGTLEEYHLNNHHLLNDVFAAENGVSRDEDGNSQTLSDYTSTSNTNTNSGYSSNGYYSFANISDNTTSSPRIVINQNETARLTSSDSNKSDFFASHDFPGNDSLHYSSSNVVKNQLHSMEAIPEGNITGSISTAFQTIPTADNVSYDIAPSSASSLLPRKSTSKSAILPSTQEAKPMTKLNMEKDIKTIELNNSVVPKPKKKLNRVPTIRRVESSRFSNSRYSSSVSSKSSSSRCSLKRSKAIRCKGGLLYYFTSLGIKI


Molecular target: T1, 6His-Gps1-1-290
Assay: pull-down; 6His-Gps1-1-290 bound to Ni-NTA agarose beads, incubated with GST or GST fusion proteins 1 h at 4°C in 50 mM Tris-HCl pH 7.4, 10% glycerol, 100 mM NaCl, 1 mM EDTA, 1 mM DTT, 0.5% NP-40; SDS-PAGE and Western blotting
Conditions: both partners purified

Binder	binding result
GST-Cdc42 (natural protein, Cdc42, Rho GTPase of budding yeast; source: E. coli BL21 (DE3), purified) not shown	binds
GST-Cdc42-D57Y (natural protein, Cdc42, Rho GTPase of budding yeast, nucleotide-locked mutant D57Y; source: E. coli BL21 (DE3), purified) not shown	binds
GST-Cdc42-Q61L (natural protein, Cdc42, Rho GTPase of budding yeast, nucleotide-locked mutant Q61L; source: E. coli BL21 (DE3), purified) not shown	binds
GST-Rho1 (natural protein, S. cerevisiae, UniProt P06780 1-209, looked up, Rho1, Rho GTPase of budding yeast; source: E. coli BL21 (DE3), purified) MSQQVGNSIRRKLVIVGDGACGKTCLLIVFSKGQFPEVYVPTVFENYVADVEVDGRRVELALWDTAGQEDYDRLRPLSYPDSNVVLICFSIDLPDSLENVQEKWIAEVLHFCQGVPIILVGCKVDLRNDPQTIEQLRQEGQQPVTSQEGQSVADQIGATGYYECSAKTGYGVREVFEAATRASLMGKSKTNGKAKKNTTEKKKKKCVLL	binds

The next lines start with the values.

binding result	Binder
binds	GST-Rho1-G22A (natural protein, S. cerevisiae, UniProt P06780 1-209, looked up, Rho1, Rho GTPase of budding yeast, nucleotide-locked mutant G22A; source: E. coli BL21 (DE3), purified) MSQQVGNSIRRKLVIVGDGACAKTCLLIVFSKGQFPEVYVPTVFENYVADVEVDGRRVELALWDTAGQEDYDRLRPLSYPDSNVVLICFSIDLPDSLENVQEKWIAEVLHFCQGVPIILVGCKVDLRNDPQTIEQLRQEGQQPVTSQEGQSVADQIGATGYYECSAKTGYGVREVFEAATRASLMGKSKTNGKAKKNTTEKKKKKCVLL
binds	GST-Rho1-G19V (natural protein, S. cerevisiae, UniProt P06780 1-209, looked up, Rho1, Rho GTPase of budding yeast, nucleotide-locked mutant G19V; source: E. coli BL21 (DE3), purified) MSQQVGNSIRRKLVIVGDVACGKTCLLIVFSKGQFPEVYVPTVFENYVADVEVDGRRVELALWDTAGQEDYDRLRPLSYPDSNVVLICFSIDLPDSLENVQEKWIAEVLHFCQGVPIILVGCKVDLRNDPQTIEQLRQEGQQPVTSQEGQSVADQIGATGYYECSAKTGYGVREVFEAATRASLMGKSKTNGKAKKNTTEKKKKKCVLL
